Assay results from patent US20020128175A1.

Biological target: low density lipoprotein (LDL) from human plasma (human) (UniProt P04114)
Assay: agarose gel, stained bands excised and counted with 125I-labeled peptide

Ac-LRKLRKRLLRDWLKAFYDKVAEKLKEAF-NH2 (also: 125I-labelled where stoichiometry was determined) [Ac-hE18A-NH2 (end protected analog of hApoE[141-150]-18A)]
stoichiometry (molecules of peptide per LDL) (molecules of peptide per LDL): 30
